A short description of data set [1]: Figure S3B, method not described in text. The settings on record: glycan lost; control: wild type.
Data set [2] in a line: transcriptional activity assay. Particulars: glycan lost; control: wild type.
The nature of data set [3]: IP, anti-ubiquitin blot with MG132, HEK 293T. Particulars: control: wild type.

B1: PGC-1α: S333A (protein)
parent chain: MAWDMCSQDSVWSDIECAALVGEDQPLCPDLPELDLSELDVNDLDTDSFLGGLKWCSDQSEIISNQYNNEPANIFEKIDEENEANLLAVLTETLDSLPVDEDGLPSFDALTDGAVTTDNEASPSSMPDGTPPPQEAEEPSLLKKLLLAPANTQLSYNECSGLSTQNHAANHTHRIRTNPAIVKTENSWSNKAKSICQQQKPQRRPCSELLKYLTTNDDPPHTKPTENRNSSRDKCASKKKSHTQPQSQHAQAKPTTLSLPLTPESPNDPKGSPFENKTIERTLSVELSGTAGLTPPTTPPHKANQDNPFKASPKLKPSCKTVVPPPTKRARYSECSGTQGSHSTKKGPEQSELYAQLSKSSGLSRGHEERKTKRPSLRLFGDHDYCQSLNSKTDILINISQELQDSRQLDFKDASCDWQGHICSSTDSGQCYLRETLEASKQVSPCSTRKQLQDQEIRAELNKHFGHPCQAVFDDKSDKTSELRDGDFSNEQFSKLPVFINSGLAMDGLFDDSEDESDKLSYPWDGTQPYSLFDVSPSCSSFNSPCRDSVSPPKSLFSQRPQRMRSRSRSFSRHRSCSRSPYSRSRSRSPGSRSSSRSCYYYESSHYRHRTHRNSPLYVRSRSRSPYSRRPRYDSYEAYEHERLKRDEYRKEHEKRESERAKQRERQKQKAIEERRVIYVGKIRPDTTRTELRDRFEVFGEIEECTVNLRDDGDSYGFITYRYTCDAFAALENGYTLRRSNETDFELYFCGRKQFFKSNYADLDTNSDDFDPASTKSKYDSLDFDSLLKEAQRSLRR
Regarding B1, the “other: phosphorylation” value in data set [1] is “no change”. In addition, the “other: transcriptional activity” value in data set [2] is recorded as “no change”. Moreover, the “other: ubiquitination” value in data set [3] (glycan lost) is “increases”.

B2: PGC-1α: OGT overexpression (protein)
parent chain: MAWDMCSQDSVWSDIECAALVGEDQPLCPDLPELDLSELDVNDLDTDSFLGGLKWCSDQSEIISNQYNNEPANIFEKIDEENEANLLAVLTETLDSLPVDEDGLPSFDALTDGAVTTDNEASPSSMPDGTPPPQEAEEPSLLKKLLLAPANTQLSYNECSGLSTQNHAANHTHRIRTNPAIVKTENSWSNKAKSICQQQKPQRRPCSELLKYLTTNDDPPHTKPTENRNSSRDKCASKKKSHTQPQSQHAQAKPTTLSLPLTPESPNDPKGSPFENKTIERTLSVELSGTAGLTPPTTPPHKANQDNPFKASPKLKPSCKTVVPPPTKRARYSECSGTQGSHSTKKGPEQSELYAQLSKSSGLSRGHEERKTKRPSLRLFGDHDYCQSLNSKTDILINISQELQDSRQLDFKDASCDWQGHICSSTDSGQCYLRETLEASKQVSPCSTRKQLQDQEIRAELNKHFGHPCQAVFDDKSDKTSELRDGDFSNEQFSKLPVFINSGLAMDGLFDDSEDESDKLSYPWDGTQPYSLFDVSPSCSSFNSPCRDSVSPPKSLFSQRPQRMRSRSRSFSRHRSCSRSPYSRSRSRSPGSRSSSRSCYYYESSHYRHRTHRNSPLYVRSRSRSPYSRRPRYDSYEAYEHERLKRDEYRKEHEKRESERAKQRERQKQKAIEERRVIYVGKIRPDTTRTELRDRFEVFGEIEECTVNLRDDGDSYGFITYRYTCDAFAALENGYTLRRSNETDFELYFCGRKQFFKSNYADLDTNSDDFDPASTKSKYDSLDFDSLLKEAQRSLRR
In the case of B2, in data set [3] (glycan gained), the “other: ubiquitination” value is recorded as “decreases”.

These data come from paper PMC3480732.
